Data on six substances can be found in the supplement of paper PMC5998384.

Data set [1] has as its system HeLa Kyoto. Nature of the data set: solubility change mitosis vs G1/S (difference of NP-40 vs SDS log2 ratios) (log2 ratio difference); higher = more soluble in mitosis.
For data set [2], the system named is HeLa Kyoto. Nature of the data set: thermal stability score vs G1/S (z-score of summed log2 fold changes over temperatures); higher = more thermally stable than in G1/S.
In data set [3] the test system is HeLa Kyoto. As to the kind of experiment: melting temperature (median over replicates), in situ; higher = more thermally stable.
Data set [4] deals with HeLa Kyoto. Nature of the data set: solubility in G1/S (NP-40 vs SDS abundance) (log2 ratio); higher = more soluble. The conditions noted are these: cell cycle stage: G1/S.
Where [5] appears, read: cell cycle stage: early G1 (4.5 h after nocodazole release).
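Wherever melting temperature (median over replicates), in situ is given: HeLa Kyoto cells synchronized by double thymidine or nocodazole block, proteins quantified by TMT10plex mass spectrometry, three independent biological replicates.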
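Wherever solubility change mitosis vs G1/S (difference of NP-40 vs SDS log2 ratios) is given: synchronized HeLa Kyoto cells (double thymidine block for G1/S, nocodazole release for mitosis), protein amounts in NP-40 versus SDS lysates quantified by mass spectrometry, three biological replicates.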
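Wherever solubility in G1/S (NP-40 vs SDS abundance) is given: HeLa Kyoto cells arrested at G1/S by double thymidine block, proteins quantified by TMT10plex mass spectrometry in mild NP-40 versus SDS extracts, three biological replicates.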
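Wherever thermal stability score vs G1/S (z-score of summed log2 fold changes over temperatures) is given: synchronized HeLa Kyoto cells, proteins quantified by TMT10plex mass spectrometry, three biological replicates, mitosis taken 0.5 h after nocodazole release, G1/S directly after double thymidine block.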

For “MAALTLRGVRELLKRVDLATVPRRHRYKKKWAATEPKFPAVRLALQNFDMTYSVQFGDLWPSIRVSLLSEQKYGALVNNFAAWDHVSAKLEQLSAKDFVNEAISHWELQSEGGQSAAPSPASWACSPNLRCFTFDRGDISRFPPARPGSLGVMEYYLMDAASLLPVLALGLQPGDIVLDLCAAPGGKTLALLQTGCCRNLAANDLSPSRIARLQKILHSYVPEEIRDGNQVRVTSWDGRKWGELEGDTYDRVLVDVPCTTDRHSLHEEENNIFKRSRKKERQILPVLQVQLLAAGLLATKPGGHVVYSTCSLSHLQNEYVVQGAIELLANQYSIQVQVEDLTHFRRVFMDTFCFFSSCQVGELVIPNLMANFGPMYFCKMRRLT [NSUN4]”, the “solubility change mitosis (log2)” value in data set [1] turned out to be 0.115. In addition, the thermal stability score was found to be 0.266 in data set [2] (setting [5]) and 0.044 in data set [2] (cell cycle stage: mitosis). Also, the melting temperature in data set [3] (cell cycle stage: G1/S) was 51.7 °C; in data set [3] (cell cycle stage: mitosis) it was 51.9 °C. Further, the “solubility in G1/S (log2)” value in data set [4] was -0.195.
Regarding “MMEERAAAAVAAAASSCRPLGSGAGPGPTGAAPVSAPAPGPGPAGKGGGGGGSPGPTAGPEPLSLPGILHFIQHEWARFEAEKARWEAERAELQAQVAFLQGERKGQENLKTDLVRRIKMLEYALKQERAKYHKLKFGTDLNQGEKKADVSEQVSNGPVESVTLENSPLVWKEGRQLLRQYLEEVGYTDTILDMRSKRVRSLLGRSLELNGAVEPSEGAPRAPPGPAGLSGGESLLVKQIEEQIKRNAAGKDGKERLGGSVLGQIPFLQNCEDEDSDEDDELDSVQHKKQRVKLPSKALVPEMEDEDEEDDSEDAINEFDFLGSGEDGEGAPDPRRCTVDGSPHELESRRVKLQGILADLRDVDGLPPKVTGPPPGTPQPRPHEDVFIMDTIGGGEVSLGDLADLTVTNDNDLSCDLSDSKDAFKKTWNPKFTLRSHYDGIRSLAFHHSQSALLTASEDGTLKLWNLQKAVTAKKNAALDVEPIHAFRAHRGPVLAVAMGSNSEYCYSGGADACIHSWKIPDLSMDPYDGYDPSVLSHVLEGHGDAVWGLAFSPTSQRLASCSADGTVRIWDPSSSSPACLCTFPTASEHGVPTSVAFTSTEPAHIVASFRSGDTVLYDMEVGSALLTLESRGSSGPTQINQVVSHPNQPLTITAHDDRGIRFLDNRTGKPVHSMVAHLDAVTCLAVDPNGAFLMSGSHDCSLRLWSLDNKTCVQEITAHRKKHEEAIHAVACHPSKALIASAGADALAKVFV [STRN4]”, the “solubility change mitosis (log2)” value in data set [1] is -0.085. Moreover, the thermal stability score in data set [2] (setting [5]) is 0.143; in data set [2] (cell cycle stage: mitosis) it was 0.0318. Moreover, the melting temperature was determined as 50.6 °C in data set [3] (cell cycle stage: G1/S) and 50.4 °C in data set [3] (cell cycle stage: mitosis). Also, the “solubility in G1/S (log2)” value in data set [4] was 0.104.
With “MNHDFQALALESRGMGELLPTKKFWEPDDSTKDGQKGIFLGDDEWRETAWGASHHSMSQPIMVQRRSGQGFHGNSEVNAILSPRSESGGLGVSMVEYVLSSSPADKLDSRFRKGNFGTRDAETDGPEKGDQKGKASPFEEDQNRDLKQGDDDDSKINGRGLPNGMDADCKDFNRTPGSRQASPTEVVERLGPNTNPSEGLGPLPNPTANKPLVEEFSNPETQNLDAMEQVGLESLQFDYPGNQVPMDSSGATVGLFDYNSQQQLFQRTNALTVQQLTAAQQQQYALAAAQQPHIAGVFSAGLAPAAFVPNPYIISAAPPGTDPYTAAGLAAAATLAGPAVVPPQYYGVPWGVYPANLFQQQAAAAANNTASQQAASQAQPGQQQVLRAGAGQRPLTPNQGQQGQQAESLAAAAAANPTLAFGQGLATGMPGYQVLAPTAYYDQTGALVVGPGARTGLGAPVRLMAPTPVLISSAAAQAAAAAAAGGTASSLTGSTNGLFRPIGTQPPQQQQQQPSTNLQSNSFYGSSSLTNSSQSSSLFSHGPGQPGSTSLGFGSGNSLGAAIGSALSGFGSSVGSSASSSATRRESLSTSSDLYKRSSSSLAPIGQPFYNSLGFSSSPSPIGMPLPSQTPGHSLTPPPSLSSHGSSSSLHLGGLTNGSGRYISAAPGAEAKYRSASSTSSLFSSSSQLFPPSRLRYNRSDIMPSGRSRLLEDFRNNRFPNLQLRDLIGHIVEFSQDQHGSRFIQQKLERATPAERQMVFNEILQAAYQLMTDVFGNYVIQKFFEFGSLDQKLALATRIRGHVLPLALQMYGCRVIQKALESISSDQQVISEMVKELDGHVLKCVKDQNGNHVVQKCIECVQPQSLQFIIDAFKGQVFVLSTHPYGCRVIQRILEHCTAEQTLPILEELHQHTEQLVQDQYGNYVIQHVLEHGRPEDKSKIVSEIRGKVLALSQHKFASNVVEKCVTHASRAERALLIDEVCCQNDGPHSALYTMMKDQYANYVVQKMIDMAEPAQRKIIMHKIRPHITTLRKYTYGKHILAKLEKYYLKNSPDLGPIGGPPNGML [PUM2]”, in data set [1], the “solubility change mitosis (log2)” value was -0.11. Further, the thermal stability score in data set [2] (setting [5]) was 1.8; in data set [2] (cell cycle stage: mitosis) it was 1.49. The melting temperature in data set [3] (cell cycle stage: G1/S) is 54 °C; in data set [3] (cell cycle stage: mitosis), 50.2 °C. Further, the “solubility in G1/S (log2)” value in data set [4] was determined as 0.446.
Take “MADDLGDEWWENQPTGAGSSPEASDGEGEGDTEVMQQETVPVPVPSEKTKQPKECFLIQPKERKENTTKTRKRRKKKITDVLAKSEPKPGLPEDLQKLMKDYYSSRRLVIELEELNLPDSCFLKANDLTHSLSSYLKEICPKWVKLRKNHSEKKSVLMLIICSSAVRALELIRSMTAFRGDGKVIKLFAKHIKVQAQVKLLEKRVVHLGVGTPGRIKELVKQGGLNLSPLKFLVFDWNWRDQKLRRMMDIPEIRKEVFELLEMGVLSLCKSESLKLGLF [CMSS1]”: the “solubility change mitosis (log2)” value in data set [1] is 0.103. For the same substance, the thermal stability score in data set [2] (setting [5]) was 1.03; in data set [2] (cell cycle stage: mitosis), 0.589. The melting temperature is 49.9 °C in data set [3] (cell cycle stage: G1/S) and 50.3 °C in data set [3] (cell cycle stage: mitosis). Also, the “solubility in G1/S (log2)” value in data set [4] was -0.211.
As to ARHGEF5, the “solubility change mitosis (log2)” value in data set [1] was -0.0134. Moreover, the thermal stability score stood at 0.0128 in data set [2] (setting [5]) and 1.32 in data set [2] (cell cycle stage: mitosis). In addition, the melting temperature in data set [3] (cell cycle stage: G1/S) is 50.6 °C; in data set [3] (cell cycle stage: mitosis) it was 51.4 °C. For the same substance, the “solubility in G1/S (log2)” value in data set [4] amounted to 0.0254.
As to “MPLNRTLSMSSLPGLEDWEDEFDLENAVLFEVAWEVANKVGGIYTVLQTKAKVTGDEWGDNYFLVGPYTEQGVRTQVELLEAPTPALKRTLDSMNSKGCKVYFGRWLIEGGPLVVLLDVGASAWALERWKGELWDTCNIGVPWYDREANDAVLFGFLTTWFLGEFLAQSEEKPHVVAHFHEWLAGVGLCLCRARRLPVATIFTTHATLLGRYLCAGAVDFYNNLENFNVDKEAGERQIYHRYCMERAAAHCAHVFTTVSQITAIEAQHLLKRKPDIVTPNGLNVKKFSAMHEFQNLHAQSKARIQEFVRGHFYGHLDFNLDKTLYFFIAGRYEFSNKGADVFLEALARLNYLLRVNGSEQTVVAFFIMPARTNNFNVETLKGQAVRKQLWDTANTVKEKFGRKLYESLLVGSLPDMNKMLDKEDFTMMKRAIFATQRQSFPPVCTHNMLDDSSDPILTTIRRIGLFNSSADRVKVIFHPEFLSSTSPLLPVDYEEFVRGCHLGVFPSYYEPWGYTPAECTVMGIPSISTNLSGFGCFMEEHIADPSAYGIYILDRRFRSLDDSCSQLTSFLYSFCQQSRRQRIIQRNRTERLSDLLDWKYLGRYYMSARHMALSKAFPEHFTYEPNEADAAQGYRYPRPASVPPSPSLSRHSSPHQSEDEEDPRNGPLEEDGERYDEDEEAAKDRRNIRAPEWPRRASCTSSTSGSKRNSVDTATSSSLSTPSEPLSPTSSLGEERN [GYS1]”, the “solubility change mitosis (log2)” value in data set [1] was -0.314. Further, the thermal stability score in data set [2] (setting [5]) turned out to be 2.32; in data set [2] (cell cycle stage: mitosis) it was 2.69. In addition, the melting temperature in data set [3] (cell cycle stage: G1/S) was determined as 54.5 °C; in data set [3] (cell cycle stage: mitosis), 55.2 °C. In addition, the “solubility in G1/S (log2)” value in data set [4] is -0.205.
